Results on one substance are retold here after patent US20040248254A1.

The target of the test is IL-1Rrp1 and mouse ACPL polypeptide coexpressed in transfected cells (IL-18 receptor) (mouse). Kind of test: cell-based or functional assay.
Chain of IL-1Rrp1 and mouse ACPL polypeptide coexpressed in transfected cells (IL-18 receptor) (mouse) (Q9Z2B1 15-614): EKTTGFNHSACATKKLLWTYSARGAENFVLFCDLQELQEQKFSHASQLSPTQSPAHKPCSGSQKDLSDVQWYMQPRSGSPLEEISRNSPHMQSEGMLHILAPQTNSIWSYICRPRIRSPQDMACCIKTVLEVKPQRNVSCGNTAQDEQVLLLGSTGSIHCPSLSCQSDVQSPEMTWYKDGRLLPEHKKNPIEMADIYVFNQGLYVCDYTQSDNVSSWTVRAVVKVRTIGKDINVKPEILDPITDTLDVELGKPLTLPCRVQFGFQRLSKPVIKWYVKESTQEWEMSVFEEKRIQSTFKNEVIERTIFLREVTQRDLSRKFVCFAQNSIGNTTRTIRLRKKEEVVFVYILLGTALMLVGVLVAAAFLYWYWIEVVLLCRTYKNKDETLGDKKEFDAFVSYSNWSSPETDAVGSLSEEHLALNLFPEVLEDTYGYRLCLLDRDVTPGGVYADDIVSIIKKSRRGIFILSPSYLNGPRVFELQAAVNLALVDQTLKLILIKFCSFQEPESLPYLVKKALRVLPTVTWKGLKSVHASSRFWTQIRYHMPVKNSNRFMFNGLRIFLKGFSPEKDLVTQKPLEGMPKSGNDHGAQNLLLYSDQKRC

Turning to “murine IL-18 (PeproTech) (from UniProt P70380 36-192) (ligand)”, the induction of the NFkB-linked gene (NFkB-Luc luciferase reporter) in COS cells turned out to be 10 fold and the induction of the NFkB-linked gene (NFkB-Luc luciferase reporter) in S49 cells amounted to 300 fold.
